In the RNAGym collection of RNA variant scans (doi:10.7554/elife.90254):

B1: LINE1-full (parent)
chain: UACGUAGGUGGUUUUCCCCUGAUAGUGCUAAGGGGGCCUGGAAGUUUGGACUGGGCAGAGCUCAACACAGCGUGGCAAAGUGGCUGUGGCUAGACUGCCUCUCUGGAUUCCUCGUCACUCAGCAGGGCAUCUCUGAGAGAAAUGCC

Variants of: B1
Experiment: self-cleavage, relative activity (ratio to wild type); higher = more cleavage; in vitro, sequencing; the parent is a self-cleaving ribozyme

Variant | self-cleavage
U14G U85A | 0.28
U47A A142G | 1.4
U81C U130A | 1.27
U1A A79U | 0.91
U45A A77G | 1.56
C113U A121U | 1.53
G27A A79U | 1.36
A22G A59U | 0.33
A24G A43U | 1.54
U26A C113U | 0.86
A42U U46C | 1.37
U102A A129G | 1.72
A64U U104A | 0.29
G48A U87C | 0.12
C63A A65G | 0.02
G8U U9A | 2.01
G54A U104C | 0.44
A57G G60A | 0.06
A64C U81A | 0.44
U23A U39A | 1.42
U45C G49A | 0.77
C3U A65G | 0.17
U100A C111A | 1.19
U85C U87A | 0.07

Variant | self-cleavage
U26C U29C | 1.15
C28U A136G | 0
U39A U96G | 0.14
A2G G35A | 1.2
U87A C99U | 0.12
U23A A30G | 2.09
A42U A59G | 0.12
A77G C90A | 0.03
A30G A117U | 1.17
U52A G137U | 1.06
U9A A79U | 1.59
U12G U102C | 0.59
A22G U73A | 1.29
A42C | 0.92
U45C U91A | 0.55
U85A G93U | 0.08
U81A C146A | 2.08
U26C G125A | 1.61
U73C A121G | 2.05
A2G A140C | 0.51
A2G A107G | 0.94
A65G U96A | 0.07
C19U A78U | 1.72
G58A A138G | 0.04

Variant | self-cleavage
C76A U87G | 0.11
U29C U96C | 0.24
A69U U112A | 0.04
U23C G144A | 1.28
A67U G88A | 0.03
U73C A94C | 0.32
U12A A59C | 0.61
G80A G88U | 0.15
U15C U104G | 1.29
U9C C17A | 1.31
A92G U109C | 0.09
A31G A94G | 0.94
C84U C98G | 0.08
A65G G122U | 0.07
U109C C110A | 1.55
U134G U143G | 0.88
U73C G74U | 1.64
A94G U119C | 0.38
A79C A121G | 1.67
U45C A57U | 0.11
U29C A43U | 1.18
U73A U132A | 1.73
U15A U47G | 0
C56U A69G | 0.02

Variant | self-cleavage
U134A A142G | 1.18
C18U U102G | 0.62
A64G U112A | 0.16
A107G U115C | 1.99
U5C U109C | 0.91
G74A U130G | 1.51
A78G U108A | 1.41
U1G A30G | 0.61
U104A U134C | 1.53
A79G G137A | 1.03
G86A A124G | 0.02
A42G U46A | 1.11
G32C G35A | 1.16
A42G A124C | 2.96
A94U G105A | 0.21
G10A G48U | 0.89
A31U U112A | 1.8
U20C C113A | 1.06
C63A A94G | 0.08
U109C | 1.2
U23C U91G | 0.15
G11U A59U | 1.02
A65G U73C | 0.06
U39A A67G | 0.43

Variant | self-cleavage
C68U A69G | 0.11
G35A U115A | 1.17
U14C A77U | 1.19
U23C A57U | 0.18
U13G G105A | 0.74
C38U A117G | 2.38
G82A A129G | 2.28
U1C U85G | 0.08
U85A U132A | 0.08
U85C A138U | 0.13
G10A A142G | 1.42
C3U U108C | 1.26
A42U A67G | 0.21
G60A A78G | 0.04
C19A U26A | 1.16
G41C | 1.22
U29C C101G | 0.89
U52G U112C | 0.99
U46C U104A | 1.11
A78U U91G | 0.11
U46C A117U | 1.78
U46C A117G | 1.78
C71A A129G | 0.23
A57C C131A | 0.08

Variant | self-cleavage
U12G A64U | 0.83
U1A A117U | 1.48
A30G G89C | 0.07
A94U U96A | 0.08
U62C A141U | 0.03
U45C U112C | 1.27
U47C A124U | 1.68
U100C A138G | 1.83
A42G G93A | 0.01
U112A A124U | 1.61
G8A U87C | 0.19
C84U A121U | 0.11
A78G A79U | 0.52
U5C G10A | 0.51
U26C A121G | 1.64
A65G G86A | 0.02
A141G A142G | 1.45
U23C U119C | 1.61
A24G G114C | 1.7
G41U U143C | 1.47
A64U A117U | 0.49
A30U U143G | 1.38
A30U U143C | 0.77
G44A A64U | 0.4

Variant | self-cleavage
G72U U81C | 1.28
G88U U104C | 0.05
G8A G135A | 1.23
U5A A57U | 0.34
C3U C51G | 1.31
A30U G54U | 0.84
U15A U85A | 0.11
C18A C37G | 0.99
A24G A79U | 1.59
U47C A138G | 1.53
U46C U81A | 2.18
U13C A22G | 1.11
A22G U134A | 1.03
U108A G114A | 1.09
U119A A140U | 1.69
U13C A129G | 1.52
A2G A94G | 0.25
G137U U143C | 1.04
G55A U109C | 0.1
A78U C116G | 2.13
U102C C128A | 0.39
U46A C146A | 1.53
U9C C90U | 0.09
